Where no end group is shown, it is not given here.
Biological target: mitogen-activated protein kinase-activated protein kinase 2 (MK2), P49137
Assay: cell-based or functional assay

mitogen-activated protein kinase-activated protein kinase 2 (MK2), P49137, sequence (P49137 46-400): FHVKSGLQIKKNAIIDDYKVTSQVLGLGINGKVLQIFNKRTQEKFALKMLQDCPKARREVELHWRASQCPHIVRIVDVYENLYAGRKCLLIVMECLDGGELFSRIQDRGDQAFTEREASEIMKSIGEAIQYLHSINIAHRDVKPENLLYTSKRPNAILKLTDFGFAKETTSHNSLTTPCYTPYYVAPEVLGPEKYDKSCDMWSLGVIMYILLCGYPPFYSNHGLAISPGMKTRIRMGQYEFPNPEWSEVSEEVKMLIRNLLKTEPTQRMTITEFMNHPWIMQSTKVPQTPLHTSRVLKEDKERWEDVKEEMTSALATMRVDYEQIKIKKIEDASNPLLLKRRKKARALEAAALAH

YARAAARQARAKALARQLGVAA (not fully specified (C-terminus)) [MMI-0100 (…; SEQ ID NO: 1)]
Percent Activity (radiometric kinase assay, peptide at 100 µM): < 5 % activity
